The DeepSol protein solubility set

Test: soluble on expression in E. coli; label from the status in PepcDB or PDB records

| Sequence | soluble on expression in E. coli |
| --- | --- |
| MTQLCSDVRVSPLPGTAKVGDTYILFEHHGPWSHDILDGGTFDKETSAALKAMGCGFYLIRRHGREGRIERPKKTAYLVFGSAGIAEKLMVDDVTDLLKLDVSGPGKNRQFGAEQEAQPIILVCTHAKRDACCAIKGRPMAQALTEEFPDSPVWECSHTKGHRFAPSMVLMPWGYTWGQLNKPAAFDMYRYAQRGQLFLPGNRGRGIWPMKGQIAEVAVAQQLAQEGETVTLGQLRVESIEEAQAHVADSHTARTWTVFLREEVVAGIVDSCHKPPKTGTAWVADRVKENGALEHHHHHH | soluble |
| MGSDKIHHHHHHMLLYIHGFNSSPFSDKAIMTAQYMAQHHPSVLFHQPQLPNTPKAAMALLLEYVEAALKDDEPLTYIGSSLGGYFASYLAEHYGGRAVLVNPAVKPFELFDEFMGPQFNPYTGENYQVLPEHKMEVAEFNTPVIRNPDRFLVLLQSGDEVLDYREALSKYHHCQLRIEAAGDHSFVGYEHYLQTISQFLHLP | not soluble |
| MGSDKIHHHHHHMPLLIDIRKLTLITRLIQDGAEQVADSLATLAGVDAAVEIKSLSFVQPEDIATEMGGGTIYSARVRLTEPPYGVFLMTFETETAAEIAELMTGSSVEDGFTQLHESALQEMCNILTSGFIDGIANTLNATINMGTPTVVQDDATEIADKALSHVRRDSLTIVLDSLVDIKESDVAFSLRIFLIPDPGSFVHLIDQLDYDTDRETHISADTDAVKELDMSGDADALDAFDSSK | not soluble |
| MGSDKIHHHHHHMRRIKIFDTTLRDGEQSPGASMSIEEKVEMALMLEDLGVDLIEAGFPVSSPVQFEAVKRVASAVQKPIVVGLARCVEKDIDAAYEALKDRPKDKRMIHVFIATSPIHRKYKLRMEKEEILERIRRYVGYAKQFFDLVEFSAEDASRTEVPFLIEAYKTAIEAGATTINVPDTVGYALPDEFGELIKTLREGVPGIENVDLSVHCHNDLGLAVANSLAAVQNGATQVEVTLNGIGERAGNCALEEFVMILKVRKDKLPYETGIKTELIYPASRLLTHITGLIPSRNKPIVGENVFLHESGIHQDGVLKHRETYEIMKPSDIGRSSETLVLGRHSGKHALRKKLETYGIKLDEETFQKVFEKFTELADRKKEVYDDDLFSIVSEVLREPINGYKLVHFHVHTGNTLLPTAAVVLQVGNEKREAAEAGNGPVDAIFKAIDKALGIQPKLEEYIIQAVGTGKNAQGEVKLTLRIDNELYSGRGVSTDIVEASAIAYINAINKYLIAKGLLRKNGGAE | not soluble |
| MGSDKIHHHHHHMPVYLYYGEDTYSLNQKIDHLVNQNVHAEWKDFNYIKLSGNEKNIAAKVFTEVMTLPFGEGNKIVHTDSDHLIGSLSNEDNNQELENQLSRIPASNILLITSNKKPDSRRTVVKTILKYAQQEEFPLVPCWDKKGIVNLIGKYAAIHQVKFTPDVTDYLVEAIGNNTARVDSEFAKLAVYASEKIISLEEIKQLVSNHNTDYQKLTIAMLRNHSNLAIAQVDKLLDSNEHPLKIVATLTSFFRTWLITKAGVEARLSDIKIAEIAEVKNPKRLYYLKDEIKFVGVQKLKNSLTLLLQLETELKSGTNNLISRIIEICMI | not soluble |
| MMLNAWHLPVPPFVKQSKDQLLITLWLTGEDPPQRIMLRTEHDNEEMSVPMHKQRSQPQPGVTAWRAAIDLSSGQPRRRYSFKLLWHDRQRWFTPQGFSRMPPARLEQFAVDVPDIGPQWAADQIFYQIFPDRFARSLPREAEQDHVYYHHAAGQEIILRDWDEPVTAQAGGSTFYGGDLDGISEKLPYLKKLGVTALYLNPVFKAPSVHKYDTEDYRHVDPQFGGDGALLRLRHNTQQLGMRLVLDGVFNHSGDSHAWFDRHNRGTGGACHNPESPWRDWYSFSDDGTALDWLGYASLPKLDYQSESLVNEIYRGEDSIVRHWLKAPWNMDGWRLDVVHMLGEAGGARNNMQHVAGITEAAKETQPEAYIVGEHFGDARQWLQADVEDAAMNYRGFTFPLWGFLANTDISYDPQQIDAQTCMAWMDNYRAGLSHQQQLRMFNQLDSHDTARFKTLLGRDIARLPLAVVWLFTWPGVPCIYYGDEVGLDGKNDPFCRKPFPWQVEKQDTALFALYQRMIALRKKSQALRHGGCQVLYAEDNVVVFVRVLNQQRVLVAINRGEACEVVLPASPFLNAVQWQCKEGHGQLTDGILALPAISATVWMN | soluble |
| MGSDKIHHHHHHMFKGIIAALWDMDSIGEIEPDVVFLLKSDILNLKFHLKILKDRGKTVFVDMDFVNGLGEGEEAILFVKKAGADGIITIKPKNYVVAKKNGIPAVLRFFALDSKAVERGIEQIETLGVDVVEVLPGAVAPKVARKIPGRTVIAAGLVETEEEAREILKHVSAISTSSRILWKMKFLP | soluble |
| MQPQSVLHSGYLHPLLRAWQTATTTLNASNLIYPIFVTDVPDDIQPITSLPGVARYGVKRLEEMLRPLVEEGLRCVLIFGVPSRVPKDERGSAADSEESPAIEAIHLLRKTFPNLLVACDVCLCPYTSHGHCGLLSENGAFRAEESRQRLAEVALAYAKAGCQVVAPSDMMDGRVEAIKEALMAHGLGNRVSVMSYSAKFASCFYGPFRDAAKSSPAFGDRRCYQLPPGARGLALRAVDRDVREGADMLMVKPGMPYLDIVREVKDKHPDLPLAVYHVSGEFAMLWHGAQAGAFDLKAAVLEAMTAFRRAGADIIITYYTPQLLQWLKEE | soluble |
| MHLPPKLALTTGVLLVALPLATPAWGQPPTPASPLVQQLNNGNWLDPKEAETLRDELYYQRAIHAYMTMLPALNVIGMRDGSEKVFGAGYNVLPVWKERMDARTMVPTPNADVIYSMSYLDLKKTGPLVVKAPANVIGMFTDFFQRTLTDVGAIGPDRARGGLYLILPPDYDGHVPSSYFVVKSPTYNVFLFFRTIMGQGKGKPDPAPAVKAAETTRVYPLWAEEKDIKPMEFPDGSGKHINMMYPVDQEYWTKLKEFVDYEPVSAIDPELRGVLASIGIVKGQPFKPTAREQELLKRAVETAPKMILAMRQLGREDKRHLYYKDRQWERAWAGATAEWMQDSYLDVNQRATFFQIAYSSAPAMVMRTTGAGSKYPFTARDANGEFLNGSATYKLRMPPDAPAALFWAVTAYNVTDGTMPETDQLMPSTNGYYDIPKQKDGSTEIWFGPQKPADVADAAFIKTIPNRNFLVTLRLYGAEDAFYDQTWKPDDVVKVKLEHHHHHH | not soluble |
| MGRHLRLPSGTKLIVARNQGEVNFLKGFRNRYNYAYRKDGKGTFALIKGNPPEEELQLIADIIARYSKNEPAKVGIHLNGKEIELIGNPPSDEFLEQFKIYAKKEVGHGR | not soluble |
| MSLSITRKDFDHINLEYSGLEKVNKAVAAGNYDDAAKALLAYYREKSKAREPDFSNAEKPADIRQPIDKVTREMADKALVHQFQPHKGYGYFDYGKDINWQMWPVKDNEVRWQLHRVKWWQAMALVYHATGDEKYAREWVYQYSDWARKNPLGLSQDNDKFVWRPLEVSDRVQSLPPTFSLFVNSPAFTPAFLMEFLNSYHQQADYLSTHYAEQGNHRLFEAQRNLFAGVSFPEFKDSPRWRQTGISVLNTEIKKQVYADGMQFELSPIYHVAAIDIFLKAYGSAKRVNLEKEFPQSYVQTVENMIMALISISLPDYNTPMFGDSWITDKNFRMAQFASWARVFPANQAIKYFATDGKQGKAPNFLSKALSNAGFYTFRSGWDKNATVMVLKASPPGEFHAQPDNGTFELFIKGRNFTPDAGVFVYSGDEAIMKLRNWYRQTRIHSTLTLDNQNMVITKARQNKWETGNNLDVLTYTNPSYPNLDHQRSVLFINKKYFLVIDRAIGEATGNLGVHWQLKEDSNPVFDKTKNRVYTTYRDGNNLMIQSLNADRTSLNEEEGKVSYVYNKELKRPAFVFEKPKKNAGTQNFVSIVYPYDGQKAPEISIRENKGNDFEKGKLNLTLTINGKQQLVLVPEGHHHHHH | soluble |
| MTTMTPDAAGLAALEARLKQDLAWLELPAKSWVPRRVVDGKSVVDVVIVGAGMAGLVASAMLRRLGVDNQLVLDRARAGEEGPWVTFARMRTLRSPKELTGPAMGMPALTFRAFYEAQYGRQAWQALDRAPRTMWMDYLIWYRKVLDLPVRNGVSVERIHARTDELFALDISEGGTSRQILARHVVLATGRDGLGGAYVPSLCDGIDRRFWAHSSAPIDFERLRGRRVAVVGAGASAMDNAAMALEAGAARLDLFIRRADIPRVNKFTGIGSQGVVHGFAGLSDDWKWRFLDHTLKAQTPPPRQSVLRVSAYPQAHFHLASPIDDLAVAGDHLTVTTPKGRYATDFIIFGTGFKVDLALRDELAEFAPHIRFWCDRFPAPDGMDNAELENSPDLGDSFQFLEKEPGACPMLARLHCFNYPATLSHGKLSGDIPAISEGADRLARGIVRRLFVEDREIHFANLKAFATPELAGDEWQDADVTHQPAE | soluble |
| MGSDKIHHHHHHMLRLFQRKSAVLPPVAAVTETALSKGLLQPKPAAELLATPRRQKLLEHIWQRTSLSRKQFHTLYRVPLERYADLVQQFPASESHHHAYLGGMLDHGLEIVAFALKLRQSHLLPAGASPEDQAAQAEAWTAAVAYAALLHDIGKIAVDLHVELQGGRIWHPWHGPLSQPYRFRHREGREYRLHGAATGLLYSRILDSAALDWLSGYPALWSQLLYVLSGQYEHADMLGELVVQADRASVAQELGGDPAKVMAAPKHALQRKLLEGLRYLLKEQLKLNQPEASDGWLTEDALWLVSKTVSDKLRAHLLSQGIDGIPASNSAVFNVLQEHSMLQLTCPHRPYQ | not soluble |
| MAHHHHHHMDNSHFSKMLKECKIIGKSFTSTDADLLFSKVKAKEARKISFTEFKEKAIPEIAAKMKKTPADIEAMIANAAPKSSGTKADTVRFHDDKSTYTGAAKQGGPTNVDRNAGSLAGVVDRRQETINNRGFTA | soluble |
| MAKSRTIYVCAECGGTSLKWQGKCPHCSAWNTLEETVESAASSAGGHRYAPLAAASPVRSLSEIEARETPRQPTGLDEFDRVLGGGLVAGAVVLIGGDPGIGKSTLLLQALASLSATTKVLYVTGEESAEQVALRARRLGLQTGNVDLLAEIRLEAIQAAVSEQKPTVAVIDSIQTLYSGELTAAPGSVSQVRECAAQLTRLAKQTGIAIVMIGHVTKDGALAGPRVLEHIVDTVLYFEGDTHSSFRLVRAFKNRFGAVNELGVFAMTDRGLRGVANPSALFLSQHQQQVAGSCVLATQEGTRPLLVEVQALVDTSHAPNPRRLTVGLEGNRLAMLLAVMHRHAGVSTYDQDVFVNAVGGVRITEPAADLPVLLAIMSSLRDKPLPAGLVAFGEIGLAGEIRPAPRGQERLREAAKLGFSVALIPKANAPRQPIEGLEIWAVDRLDAALDKLRLEHHHHHH | not soluble |
| FYHDYTVTQDELLKDSSDALKKEFLKILDKAIKRLILMANGDTIVIPLSGGYDSRAIATMLKKNGYENVILYTYGKPDSTEVRVAREVAKNLEFEWIFVEQNEDIVDPDYPERDFFLEFYKYAFNHVSTIHLQDFFVFKHLHDNSVIPKNSIIVPGHSGDFLGGSHLRKLPIPKSKRDVFNTILIKHYIVNEHIKLSPYVVKKINEYLNSFSEHTLPYSLDDNWNMKERQAKFIVNSNRTYEFFGYRHAIPLWDLELVEFFRRVPLEYKTKEVIYSDALRESVFKDFGVVLSQKDVANTMALEFYHRIFHSMEIFRHIRYFAEKN | not soluble |
| MGNCNARPATFKPKNLPMEYPKKYAMYPTRRRMRASERRTYKRDCKNLLESVAGENPFEGDEETANNYTEAIFSISIKAKVLKTYMDLIESSINEECPVNGHIQLFCNEINNLSHLYEVFFRKSIVSVDTRVEERKEIARAAYRDIKNLTIIIYLNKERSKTLLQSVMMHTEFQTHQAEKLVEHYEATFSPILKEVLPDPNAPRIHRTPTRAQIIAFWEEVRREKESGTLGTPF | not soluble |
| MIFVLDVGNTNTVLGVYDGDELKHHWRIETSRSKTEDEYGMMIKALLNHVGLQFSDIRGIIISSVVPPIMFALERMCLKYFHIKPLIVGPGIKTGLDIKYDNPREVGADRIVNAVAGIHLYGSPLIIVDFGTATTYCYINEHKQYMGGAIAPGIMISTEALFARAAKLPRIEIARPDDIIGKNTVSAMQAGILYGYVGQVEGIVSRMKAKSKIPPKVIATGGLAPLIASESDIIDVVDPFLTLTGLKLLYEKNTEKKG | soluble |
| MKMNYHLSTSSYTTSMLSCTVLDDDIRYEKLSWKLDEAEMQGLIM | soluble |
